From paper PMC4866720, “A Genetic Screen Identifies a Requirement for Cysteine-Rich–Receptor-Like Kinases in Rice NH1 (OsNPR1)-Mediated Immunity”

B1: CRK10 promoter TGA site wt probe (dsDNA)
DNA 1: CTCTTTGTGACGTTGTTCTTC
DNA 2: GAAGAACAACGTCACAAAGAG
B2: CRK10 promoter TGA site mt competitor (dsDNA)
DNA 1: CTCTTTGTGGTGTTGTTCTTC
DNA 2: GAAGAACAACACCACAAAGAG

How the values were obtained:
[1] = molecular target: T1, TGA2.1 (Oryza sativa (rice), UniProt Q7X993 1-334); assay: EMSA; competed by unlabeled wt oligonucleotide (5X, 20X, 100X tested); EMSA with biotin probe, chemiluminescent detection; buffer, salt, pH and temperature not stated; conditions: protein: recombinant; chain copies: 2; label: 5'-biotin on top strand (probe)
T1 sequence: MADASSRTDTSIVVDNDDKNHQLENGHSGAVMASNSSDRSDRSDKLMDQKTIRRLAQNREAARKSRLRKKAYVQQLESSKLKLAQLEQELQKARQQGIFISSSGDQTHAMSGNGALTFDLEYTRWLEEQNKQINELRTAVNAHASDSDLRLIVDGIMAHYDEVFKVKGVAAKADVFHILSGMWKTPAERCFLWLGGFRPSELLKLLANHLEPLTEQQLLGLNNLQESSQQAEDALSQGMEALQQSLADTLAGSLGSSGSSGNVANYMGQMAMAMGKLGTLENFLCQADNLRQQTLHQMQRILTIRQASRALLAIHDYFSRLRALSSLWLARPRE

[2] = molecular target: T1, TGA2.1; assay: competition; EMSA competitor 5X, 20X, 100X against biotin-wt probe; EMSA with biotin probe, chemiluminescent detection; buffer, salt, pH and temperature not stated; conditions: protein: recombinant; chain copies: 2

| Binder | binding result [1] | binding result [2] |
| --- | --- | --- |
| B1 | binds |  |
| B2 |  | no binding |
